Data as given in patent US20250361274A1, “PEPTIDE AND PEPTIDE-CONTAINING AGENT” (PEPTIDREAM INC., priority 2022, published 2025).
Numbered stars: 1 amine (or outer) side, 2 acyl side, 3 side chain; on linkers, the order of the positions; unused ones are H or OH. Bridge positions count the residues as written; N and C are the ends. Square brackets hold non-standard residues; d marks the D form. Ends that are not written are not given here. KCOpipzaa = N6-(4-(carboxymethyl)piperazine-1-carbonyl)-L-lysine, O=C(NCCCC[C@H](N[*:1])C(=O)[*:2])N1CCN(CC(=O)[*:3])CC1; Phe(4-guanidino) = N=C(N)Nc1ccc(C[C@H](N)C(=O)O)cc1; 3Pal(6-Ph) = N[C@@H](Cc1ccc(-c2ccccc2)nc1)C(=O)O; Phe(4-COOH) = N[C@@H](Cc1ccc(C(=O)O)cc1)C(=O)O; Bip = N[C@@H](Cc1ccc(-c2ccccc2)cc1)C(=O)O; 3Pal(6-NH2) = Nc1ccc(C[C@H](N)C(=O)O)cn1; Phe(4-F) = N[C@@H](Cc1ccc(F)cc1)C(=O)O; Ala(4-THP) = N[C@@H](CC1CCOCC1)C(=O)O; hTyr = N[C@@H](CCc1ccc(O)cc1)C(=O)O; hCit = NC(=O)NCCCC[C@H](N)C(=O)O; 4Pal = N[C@@H](Cc1ccncc1)C(=O)O

Tests used:
BMP4 = biological target: T1, BMP4 (Homo sapiens, UniProt P12644); experiment: BMP4 signal transduction inhibitory activity: SMAD1 phosphorylation by BMP4 stimulus, AlphaLISA SureFire, A549 cells; format: cell-based; settings: for aLISA BMP4: inhibition of SMAD1 phosphorylation by BMP4 stimulus, A549 cells, peptides of Synthesis 1, classes D-F, ND; for aLIZA BMP4 (0.2 nM) % Inh: SMAD1 phosphorylation by BMP4 stimulus, peptide conc. in assay 0.02, 0.2, 2 nM, class symbols
T1 sequence (P12644 293-408): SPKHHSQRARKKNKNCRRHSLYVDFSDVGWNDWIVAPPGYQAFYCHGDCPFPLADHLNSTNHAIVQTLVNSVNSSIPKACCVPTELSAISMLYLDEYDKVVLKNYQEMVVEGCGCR

BMP7 = biological target: T2, BMP7 (Homo sapiens, UniProt P18075); experiment: BMP7 signal transduction inhibitory activity: SMAD1 phosphorylation by BMP7 stimulus, A549 cells; format: cell-based; settings: for aLISA BMP7: inhibition of SMAD1 phosphorylation by BMP7 stimulus, A549 cells, peptides of Synthesis 1, classes E, F, ND; for aLIZA BMP7 (10 nM) % Inh: SMAD1 phosphorylation by BMP7 stimulus, peptide conc. in assay 10, 100, 1000 nM, class symbols
T2 sequence (P18075 293-431): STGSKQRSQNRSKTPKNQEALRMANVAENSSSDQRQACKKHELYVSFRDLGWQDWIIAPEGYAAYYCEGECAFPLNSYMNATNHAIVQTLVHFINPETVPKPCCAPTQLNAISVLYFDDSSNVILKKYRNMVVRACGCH
Summary of the method: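 A549 cells were stimulated with 10 nM BMP7, and peptide inhibition of signalling was measured as SMAD1 phosphorylation. Peptides were tested at three concentrations, in sets ranging from 1–100 nM to 100–1,000 nM, or as eight-point 1/3 dilution series starting at 100 nM or 1,000 nM.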

| Substance | aLISA BMP4 (BMP4) | aLISA BMP7 (BMP7) | aLIZA BMP4 (0.2 nM) % Inh (BMP4) | aLIZA BMP7 (10 nM) % Inh (BMP7) |
| --- | --- | --- | --- | --- |
| 134 ({CH2CO}-ERVYVD[Phe(4-guanidino)][Bip]PYV[Bip]Y[Phe(4-COOH)][Phe(4-COOH)]SCG-NH2; thioether N-17; not fully specified) [compound 134] | E (showed less than 50% of inhibitory activity in 0.2 nM-addition zone and showed 50% or more of inhibitory activity in 2 nM-addition zone) | E (showed 50% or more of inhibitory activity in a zone to which the peptide was added in an amount of 10 nM) |  |  |
| 135 ({CH2CO}-ERVYVD[hCit][Bip]PYV[Bip]Y[Phe(4-COOH)][Phe(4-COOH)]SCG-NH2; thioether N-17; not fully specified) [compound 135] | E (showed less than 50% of inhibitory activity in 0.2 nM-addition zone and showed 50% or more of inhibitory activity in 2 nM-addition zone) | E (showed 50% or more of inhibitory activity in a zone to which the peptide was added in an amount of 10 nM) |  |  |
| 137 ({CH2CO}-ERVYVDR[Bip][hCit]YV[Bip]Y[Phe(4-COOH)][Phe(4-COOH)]SCG-NH2; thioether N-17; not fully specified) [compound 137] | D (showed 50% or more of inhibitory activity in 0.2 nM-addition zone) | E (showed 50% or more of inhibitory activity in a zone to which the peptide was added in an amount of 10 nM) |  |  |
| 143 ({CH2CO}-ERVYVDR[Bip]PYY[Bip]Y[Phe(4-COOH)][Phe(4-COOH)]SCG-NH2; thioether N-17; not fully specified) [compound 143] | D (showed 50% or more of inhibitory activity in 0.2 nM-addition zone) | E (showed 50% or more of inhibitory activity in a zone to which the peptide was added in an amount of 10 nM) |  |  |
| 145 ({CH2CO}-ERVYVDR[Bip]PY[hCit][Bip]Y[Phe(4-COOH)][Phe(4-COOH)]SCG-NH2; thioether N-17; not fully specified) [compound 145] | D (showed 50% or more of inhibitory activity in 0.2 nM-addition zone) | E (showed 50% or more of inhibitory activity in a zone to which the peptide was added in an amount of 10 nM) |  |  |
| 146 ({CH2CO}-ERVYVDR[Bip]PY[Ala(4-THP)][Bip]Y[Phe(4-COOH)][Phe(4-COOH)]SCG-NH2; thioether N-17; not fully specified) [compound 146] | D (showed 50% or more of inhibitory activity in 0.2 nM-addition zone) | E (showed 50% or more of inhibitory activity in a zone to which the peptide was added in an amount of 10 nM) |  |  |
| 150 ({CH2CO}-ERVYVDR[Bip]PYV[Bip]Y[Phe(4-COOH)][3Pal(6-NH2)]SCG-NH2; thioether N-17; not fully specified) [compound 150] | E (showed less than 50% of inhibitory activity in 0.2 nM-addition zone and showed 50% or more of inhibitory activity in 2 nM-addition zone) | E (showed 50% or more of inhibitory activity in a zone to which the peptide was added in an amount of 10 nM) |  |  |
| 243 (ERVYVDR[3Pal(6-Ph)]SYV[Bip]Y[Phe(4-COOH)][Phe(4-COOH)]SCG-NH2) [compound 243] |  |  | C (showed less than 30% of inhibitory activity in 0.2 nM-addition zone and showed 30% or more of inhibitory activity in 2 nM-addition zone) | E (showed less than 30% of inhibitory activity in 100 nM-addition zone and showed 30% or more of inhibitory activity in 1,000 nM-addition zone) |
| 244 (ARVYVDR[3Pal(6-Ph)]SYV[Bip]Y[Phe(4-COOH)][Phe(4-COOH)]SCG-NH2; not fully specified) [compound 244] |  |  | C (showed less than 30% of inhibitory activity in 0.2 nM-addition zone and showed 30% or more of inhibitory activity in 2 nM-addition zone) | ND (the inhibitory activity was less than 30% at the maximum concentration evaluated) |
| 245 (LRVYVDR[3Pal(6-Ph)]SYV[Bip]Y[Phe(4-COOH)][Phe(4-COOH)]SCG) [compound 245] |  |  | C (showed less than 30% of inhibitory activity in 0.2 nM-addition zone and showed 30% or more of inhibitory activity in 2 nM-addition zone) | ND (the inhibitory activity was less than 30% at the maximum concentration evaluated) |
| 246 (ERV[4Pal]VDR[3Pal(6-Ph)]SYV[Bip]Y[Phe(4-COOH)][Phe(4-COOH)]SCG-NH2; not fully specified) [compound 246] |  |  | C (showed less than 30% of inhibitory activity in 0.2 nM-addition zone and showed 30% or more of inhibitory activity in 2 nM-addition zone) | E (showed less than 30% of inhibitory activity in 100 nM-addition zone and showed 30% or more of inhibitory activity in 1,000 nM-addition zone) |
| 247 (ERV[Phe(4-F)]VDR[3Pal(6-Ph)]SYV[Bip]Y[Phe(4-COOH)][Phe(4-COOH)]SCG-NH2) [compound 247] |  |  | C (showed less than 30% of inhibitory activity in 0.2 nM-addition zone and showed 30% or more of inhibitory activity in 2 nM-addition zone) | E (showed less than 30% of inhibitory activity in 100 nM-addition zone and showed 30% or more of inhibitory activity in 1,000 nM-addition zone) |
| 248 (E[KCOpipzaa]VYVDR[3Pal(6-Ph)]SYV[Bip]Y[Phe(4-COOH)][Phe(4-COOH)]SCG-NH2) [compound 248] |  |  | C (showed less than 30% of inhibitory activity in 0.2 nM-addition zone and showed 30% or more of inhibitory activity in 2 nM-addition zone) | ND (the inhibitory activity was less than 30% at the maximum concentration evaluated) |
| 249 (ERVHVDR[3Pal(6-Ph)]SYV[Bip]Y[Phe(4-COOH)][Phe(4-COOH)]SCG-NH2; not fully specified) [compound 249] |  |  | C (showed less than 30% of inhibitory activity in 0.2 nM-addition zone and showed 30% or more of inhibitory activity in 2 nM-addition zone) | E (showed less than 30% of inhibitory activity in 100 nM-addition zone and showed 30% or more of inhibitory activity in 1,000 nM-addition zone) |
| 250 (ERVYVDR[3Pal(6-Ph)]HYV[Bip]Y[Phe(4-COOH)][Phe(4-COOH)]SCG-NH2; not fully specified) [compound 250] |  |  | C (showed less than 30% of inhibitory activity in 0.2 nM-addition zone and showed 30% or more of inhibitory activity in 2 nM-addition zone) | E (showed less than 30% of inhibitory activity in 100 nM-addition zone and showed 30% or more of inhibitory activity in 1,000 nM-addition zone) |
| 251 (ERVYVDR[3Pal(6-Ph)]S[hTyr]V[Bip]Y[Phe(4-COOH)][Phe(4-COOH)]SCG-NH2) [compound 251] |  |  | C (showed less than 30% of inhibitory activity in 0.2 nM-addition zone and showed 30% or more of inhibitory activity in 2 nM-addition zone) | ND (the inhibitory activity was less than 30% at the maximum concentration evaluated) |
| 252 (LRVYVDR[3Pal(6-Ph)]SYV[Bip][4Pal][Phe(4-COOH)][Phe(4-COOH)]SCG-NH2; not fully specified) [compound 252] |  |  | C (showed less than 30% of inhibitory activity in 0.2 nM-addition zone and showed 30% or more of inhibitory activity in 2 nM-addition zone) | ND (the inhibitory activity was less than 30% at the maximum concentration evaluated) |
